This data set can be described thus: Thermostability of solubilised adenosine A2a receptor and mutants (radioligand binding after or during heating). The settings on record: for thermostability measured with 3H-NECA (agonist) / thermostability assayed with 3H-ZM241385 (antagonist): Ligand(−) format, binding after the heating step. Format: physicochemical. An excerpt: FIG. 12 Flow chart showing the two different assay formats of ligand (+) and ligand (−) used to determine receptor thermostablity.
• 1. 315 site-directed mutants made between residues 2-316 of A2aR. • 2. All of these mutants have been assayed for thermostability using an assay measuring agonist and antagonist binding after the heating step (Ligand(−) format as described in FIG. 12). • a. […] Mutations have been combined to generate mutants in a putative antagonist conformation. Wildtype A2aR has a Tm of 31° C. with ZM241385 bound. • a. Rant17 A54L+K122A+L235A Tm 48° C. (ZM241385 bound) • b. Rant19 A54L,T88A,V239A+A204L Tm 47° C. (ZM241385 bound) • c. Rant21 A54L,T88A,V239A+K122A Tm 49° C. (ZM241385 bound) • 4. Mutations from the agonist screen have been combined, but have led to only a very low level of improvement in Tm of +2° C.

Changes are numbered by the printed parent chain. Names and notes keep the numbering of the source.

B1: L241A: A2aR point mutant (protein, UniProt P29274 1-412, looked up, variant L241A)
Adenosine receptor A2a: MPIMGSSVYITVELAIAVLAILGNVLVCWAVWLNSNLQNVTNYFVVSLAAADIAVGVLAIPFAITISTGFCAACHGCLFIACFVLVLTQSSIFSLLAIAIDRYIAIRIPLRYNGLVTGTRAKGIIAICWVLSFAIGLTPMLGWNNCGQPKEGKNHSQGCGEGQVACLFEDVVPMNYMVYFNFFACVLVPLLLMLGVYLRIFLAARRQLKQMESQPLPGERARSTLQKEVHAAKSLAIIVGAFALCWLPLHIINCFTFFCPDCSHAPLWLMYLAIVLSHTNSVVNPFIYAYRIREFRQTFRKIIRSHVLRQQEPFKAAGTSARVLAAHGSDGEQVSLRLNGHPPGVWANGSAPHPERRPNGYALGLVSGGSAQESQGNTGLPDVELLSHELKGVCPEPPGLDDPLAQDGAGVS
As for B1, the “thermostability measured with 3H-NECA (agonist)” value (from here on “thermostability measured”) was “improved thermostability”.

B2: E151A: A2aR point mutant (protein, UniProt P29274 1-412, looked up, variant E151A)
Adenosine receptor A2a: B1 Adenosine receptor A2a with E151A, A241L
Take B2: the “thermostability assayed with 3H-ZM241385 (antagonist)” value (shortened to “thermostability assayed”) is “improved thermostability”.

B3: R199A: A2aR point mutant (protein, UniProt P29274 1-412, looked up, variant R199A)
Adenosine receptor A2a: B1 Adenosine receptor A2a with R199A, A241L
As to B3, the “thermostability measured” value is listed as “improved thermostability”.

B4: N284A: A2aR point mutant (protein, UniProt P29274 1-412, looked up, variant N284A)
Adenosine receptor A2a: B1 Adenosine receptor A2a with A241L, N284A
Turning to B4, the “thermostability measured” value is “improved thermostability”.

B5: Q311A: A2aR point mutant (protein, UniProt P29274 1-412, looked up, variant Q311A)
Adenosine receptor A2a: B1 Adenosine receptor A2a with A241L, Q311A
On to B5, for which the “thermostability measured” value is “improved thermostability”.

B6: K315A: A2aR point mutant (protein, UniProt P29274 1-412, looked up, variant K315A)
Adenosine receptor A2a: B1 Adenosine receptor A2a with A241L, K315A
As to B6, the “thermostability measured” value is given as “improved thermostability”.

B7: P149A: A2aR point mutant (protein, UniProt P29274 1-412, looked up, variant P149A)
Adenosine receptor A2a: B1 Adenosine receptor A2a with P149A, A241L
In the case of B7, the “thermostability assayed” value is “improved thermostability”.

B8: K122A: A2aR point mutant (protein, UniProt P29274 1-412, looked up, variant K122A)
Adenosine receptor A2a: B1 Adenosine receptor A2a with K122A, A241L
As to B8, the “thermostability assayed” value was “improved thermostability”.

B9: Rant17: A2aR with A54L+K122A+L235A (protein, UniProt P29274 1-412, looked up, variant A54L K122A L235A)
Adenosine receptor A2a: B1 Adenosine receptor A2a with A54L, K122A, L235A, A241L
Take B9: the “Tm (ZM241385 bound)” value came out at 48 °C.

B10: A203L: A2aR point mutant (protein, UniProt P29274 1-412, looked up, variant A203L)
Adenosine receptor A2a: B1 Adenosine receptor A2a with A203L, A241L
For the molecule B10, the “thermostability assayed” value is “improved thermostability” and the “thermostability measured” value is reported as “improved thermostability”.

B11: Rag 1: A2aR with A184L/R199A/L272A (protein, UniProt P29274 1-412, looked up, variant A184L R199A L272A)
Adenosine receptor A2a: B1 Adenosine receptor A2a with A184L, R199A, A241L, L272A
Regarding B11, the “Tm (° C.) − agonist” value (1% DDM (no glycerol), apo-state, S.D. <1° C.) came to 26 °C. Moreover, the “Tm (° C.) + agonist” value (1% DDM (no glycerol), ligand-occupied state, S.D. <1° C.) turned out to be 34 °C.

B12: T88A: A2aR point mutant (protein, UniProt P29274 1-412, looked up, variant T88A)
Adenosine receptor A2a: B1 Adenosine receptor A2a with T88A, A241L
In the case of B12, the “thermostability assayed” value is on record as “improved thermostability”.

B13: A204L: A2aR point mutant (protein, UniProt P29274 1-412, looked up, variant A204L)
Adenosine receptor A2a: B1 Adenosine receptor A2a with A204L, A241L
As to B13, the “thermostability assayed” value is listed as “improved thermostability”.

B14: S213A: A2aR point mutant (protein, UniProt P29274 1-412, looked up, variant S213A)
Adenosine receptor A2a: B1 Adenosine receptor A2a with S213A, A241L
B14: the “thermostability measured” value is reported as “improved thermostability”.

B15: G114A: A2aR point mutant (protein, UniProt P29274 1-412, looked up, variant G114A)
Adenosine receptor A2a: B1 Adenosine receptor A2a with G114A, A241L
As to B15, the “thermostability assayed” value is reported as “improved thermostability” and the “thermostability measured” value is on record as “improved thermostability”.

B16: G152A: A2aR point mutant (protein, UniProt P29274 1-412, looked up, variant G152A)
Adenosine receptor A2a: B1 Adenosine receptor A2a with G152A, A241L
As to B16, the “thermostability assayed” value is reported as “improved thermostability”.

B17: G118A: A2aR point mutant (protein, UniProt P29274 1-412, looked up, variant G118A)
Adenosine receptor A2a: B1 Adenosine receptor A2a with G118A, A241L
Take B17: the “thermostability assayed” value is “improved thermostability” and the “thermostability measured” value is given as “improved thermostability”.

B18: L267A: A2aR point mutant (protein, UniProt P29274 1-412, looked up, variant L267A)
Adenosine receptor A2a: B1 Adenosine receptor A2a with A241L, L267A
For the molecule B18, the “thermostability measured” value is reported as “improved thermostability”.

B19: L272A: A2aR point mutant (protein, UniProt P29274 1-412, looked up, variant L272A)
Adenosine receptor A2a: B1 Adenosine receptor A2a with A241L, L272A
As for B19, the “thermostability measured” value is “improved thermostability”.

B20: Rant19: A2aR with A54L, T88A, V239A+A204L (protein, UniProt P29274 1-412, looked up, variant A54L T88A V239A A204L)
Adenosine receptor A2a: B1 Adenosine receptor A2a with A54L, T88A, A204L, V239A, A241L
Turning to B20, the “Tm (ZM241385 bound)” value was 47 °C.

B21: L167A: A2aR point mutant (protein, UniProt P29274 1-412, looked up, variant L167A)
Adenosine receptor A2a: B1 Adenosine receptor A2a with L167A, A241L
For the molecule B21, the “thermostability measured” value is on record as “improved thermostability”.

B22: L208A: A2aR point mutant (protein, UniProt P29274 1-412, looked up, variant L208A)
Adenosine receptor A2a: B1 Adenosine receptor A2a with L208A, A241L
On to B22, for which the “thermostability measured” value was “improved thermostability”.

B23: A231L: A2aR point mutant (protein, UniProt P29274 1-412, looked up, variant A231L)
Adenosine receptor A2a: B1 Adenosine receptor A2a with A231L, A241L
On to B23, for which the “thermostability assayed” value is on record as “improved thermostability”.

B24: H75A: A2aR point mutant (protein, UniProt P29274 1-412, looked up, variant H75A)
Adenosine receptor A2a: B1 Adenosine receptor A2a with H75A, A241L
With B24, the “thermostability assayed” value is recorded as “improved thermostability”.

B25: Q210A: A2aR point mutant (protein, UniProt P29274 1-412, looked up, variant Q210A)
Adenosine receptor A2a: B1 Adenosine receptor A2a with Q210A, A241L
Regarding B25, the “thermostability measured” value is given as “improved thermostability”.

B26: P260A: A2aR point mutant (protein, UniProt P29274 1-412, looked up, variant P260A)
Adenosine receptor A2a: B1 Adenosine receptor A2a with A241L, P260A
As to B26, the “thermostability measured” value is given as “improved thermostability”.

B27: A54L: A2aR point mutant (protein, UniProt P29274 1-412, looked up, variant A54L)
Adenosine receptor A2a: B1 Adenosine receptor A2a with A54L, A241L
As to B27, the “thermostability assayed” value was “improved thermostability”.

B28: V239A: A2aR point mutant (protein, UniProt P29274 1-412, looked up, variant V239A)
Adenosine receptor A2a: B1 Adenosine receptor A2a with V239A, A241L
Regarding B28, the “thermostability assayed” value is listed as “improved thermostability”.

B29: A184L: A2aR point mutant (protein, UniProt P29274 1-412, looked up, variant A184L)
Adenosine receptor A2a: B1 Adenosine receptor A2a with A184L, A241L
With B29, the “thermostability measured” value is on record as “improved thermostability”.

B30: G123A: A2aR point mutant (protein, UniProt P29274 1-412, looked up, variant G123A)
Adenosine receptor A2a: B1 Adenosine receptor A2a with G123A, A241L
With B30, the “thermostability assayed” value was “improved thermostability”.

B31: V57A: A2aR point mutant (protein, UniProt P29274 1-412, looked up, variant V57A)
Adenosine receptor A2a: B1 Adenosine receptor A2a with V57A, A241L
With B31, the “thermostability assayed” value is given as “improved thermostability”.

B32: T119A: A2aR point mutant (protein, UniProt P29274 1-412, looked up, variant T119A)
Adenosine receptor A2a: B1 Adenosine receptor A2a with T119A, A241L
For B32, the “thermostability assayed” value is “improved thermostability”.

B33: L235A: A2aR point mutant (protein, UniProt P29274 1-412, looked up, variant L235A)
Adenosine receptor A2a: B1 Adenosine receptor A2a with L235A, A241L
As to B33, the “thermostability assayed” value is recorded as “improved thermostability”.

B34: S263A: A2aR point mutant (protein, UniProt P29274 1-412, looked up, variant S263A)
Adenosine receptor A2a: B1 Adenosine receptor A2a with A241L, S263A
Take B34: the “thermostability measured” value is recorded as “improved thermostability”.

B35: P313A: A2aR point mutant (protein, UniProt P29274 1-412, looked up, variant P313A)
Adenosine receptor A2a: B1 Adenosine receptor A2a with A241L, P313A
Regarding B35, the “thermostability measured” value is listed as “improved thermostability”.

The values above are taken from US8748182B2, “Mutant proteins and methods for producing them” (Heptares Therapeutics Limited, priority 2007, dated 2014).
